{"source": "paper PMC4357722", "about": "“A novel endonuclease that may be responsible for damaged DNA base repair in Pyrococcus furiosus”", "binders": {"B1": {"name": "45N dsDNA (normal duplex) (dsDNA)", "DNA 1": "CGAACTGCCTGGAATCCTGACGACATGTAGCGAACGATCACCTCA", "DNA 2": "TGAGGTGATCGTTCGCTACATGTCGTCAGGATTCCAGGCAGTTCG"}}, "biological_target": "T1, PfuEndoQ (PF1551) (Pyrococcus furiosus, UniProt Q8U0N5 1-424)", "T1 sequence": "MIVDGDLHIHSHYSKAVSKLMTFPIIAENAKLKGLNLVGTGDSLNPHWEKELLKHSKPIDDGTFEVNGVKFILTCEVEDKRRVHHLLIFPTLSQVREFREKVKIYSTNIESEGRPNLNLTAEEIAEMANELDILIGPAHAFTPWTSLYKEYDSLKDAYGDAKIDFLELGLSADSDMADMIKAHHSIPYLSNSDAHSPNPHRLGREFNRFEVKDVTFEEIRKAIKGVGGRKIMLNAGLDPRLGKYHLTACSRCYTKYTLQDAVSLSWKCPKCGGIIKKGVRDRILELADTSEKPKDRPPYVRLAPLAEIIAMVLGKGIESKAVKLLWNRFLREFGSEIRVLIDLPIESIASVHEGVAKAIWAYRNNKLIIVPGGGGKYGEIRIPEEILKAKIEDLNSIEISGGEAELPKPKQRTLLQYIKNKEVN", "experiment": "EMSA; 1 mM Mg2+; 60 C; EMSA: 50 mM Tris-HCl pH 8.0, 1 mM MgCl2, 1 mM DTT, 0.01% Tween 20, 60 C 10 min, 5 nM DNA, 0-50 nM protein; 4% PAGE in TBE", "details": "protein: recombinant; tags: none (untagged; native stop codon in the reverse primer, pET21d); blunt", "data": [{"binder": "B1", "values": [{"measurement": "binding result", "result": "no binding"}]}]}
